The target in data set [1] is ovine submaxillary asialo-mucin (GalNAc-Thr/Ser) (ovine).
In data set [2] the target is asialo-α1-acid glycoprotein (Galβ1,4GlcNAc-R).
For data set [3], the target named is antifreeze glycoprotein (Galβ1,3GalNAc-Thr).
The target in data set [4] is asialofetuin (Galβ1,3GalNAc-Thr/Ser and Galβ1,4GlcNAc-R).
The target of the next data set is T1, human ST3N (Homo sapiens, UniProt Q11203).
T1 sequence (Q11203 62-375): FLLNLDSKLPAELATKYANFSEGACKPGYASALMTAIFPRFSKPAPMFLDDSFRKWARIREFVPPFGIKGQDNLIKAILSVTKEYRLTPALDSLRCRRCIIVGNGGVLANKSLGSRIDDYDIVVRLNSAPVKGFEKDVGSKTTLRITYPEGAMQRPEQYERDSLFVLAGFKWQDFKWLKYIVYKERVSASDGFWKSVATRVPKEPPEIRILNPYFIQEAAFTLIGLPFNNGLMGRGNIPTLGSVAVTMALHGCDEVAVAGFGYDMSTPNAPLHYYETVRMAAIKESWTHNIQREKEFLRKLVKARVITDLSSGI
Description: Acceptor specificity of soluble human ST3N (protein A fusion from COS-1 cells, on IgG Sepharose). As to conditions: acceptor 0.2 mM; relative to LNT.

The target in a further data set is T2, ST3O (Sus scrofa, UniProt Q02745).
T2 sequence (Q02745 28-343 limits assumed): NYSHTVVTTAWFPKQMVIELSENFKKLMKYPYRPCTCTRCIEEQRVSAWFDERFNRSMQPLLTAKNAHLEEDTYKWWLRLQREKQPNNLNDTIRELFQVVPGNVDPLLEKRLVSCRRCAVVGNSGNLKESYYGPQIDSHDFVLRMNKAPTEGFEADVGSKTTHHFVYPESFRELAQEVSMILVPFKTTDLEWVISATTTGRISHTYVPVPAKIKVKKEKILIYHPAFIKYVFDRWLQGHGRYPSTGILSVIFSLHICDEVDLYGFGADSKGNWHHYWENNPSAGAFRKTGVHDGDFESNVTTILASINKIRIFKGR
The experiment in a line: Acceptor specificity of ST3O (Table 4). Particulars: acceptor 0.2 mM.

The target in a further data set is T3, ST3N (Rattus norvegicus, UniProt Q02734).
T3 sequence (Q02734 29-374 limits assumed): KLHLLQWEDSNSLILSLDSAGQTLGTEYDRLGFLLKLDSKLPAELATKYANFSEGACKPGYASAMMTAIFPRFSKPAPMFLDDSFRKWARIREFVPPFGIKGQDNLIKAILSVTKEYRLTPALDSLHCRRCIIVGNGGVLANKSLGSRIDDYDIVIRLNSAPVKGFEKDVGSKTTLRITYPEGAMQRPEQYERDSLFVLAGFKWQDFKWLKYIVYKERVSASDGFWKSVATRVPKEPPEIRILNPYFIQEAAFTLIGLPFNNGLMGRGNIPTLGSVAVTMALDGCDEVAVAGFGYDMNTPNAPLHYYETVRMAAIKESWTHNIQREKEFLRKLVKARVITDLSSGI
Description: Acceptor specificity of ST3N (Table 4).

The target of another data set is T4, rat ST3N (Rattus norvegicus, UniProt Q02734).
T4 sequence (Q02734 29-374 limits assumed): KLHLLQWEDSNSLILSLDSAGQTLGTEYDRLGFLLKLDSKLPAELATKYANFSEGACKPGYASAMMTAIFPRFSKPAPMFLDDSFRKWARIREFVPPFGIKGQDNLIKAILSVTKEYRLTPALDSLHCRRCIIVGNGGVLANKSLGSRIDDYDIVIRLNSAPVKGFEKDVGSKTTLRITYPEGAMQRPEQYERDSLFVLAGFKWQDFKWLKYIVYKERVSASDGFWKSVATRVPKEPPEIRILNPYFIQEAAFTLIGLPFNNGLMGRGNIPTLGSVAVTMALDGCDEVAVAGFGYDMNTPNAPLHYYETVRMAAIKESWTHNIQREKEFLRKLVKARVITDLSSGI
The experiment in a line: Acceptor specificity of soluble rat ST3N fusion protein (Table 3). Particulars: acceptor 0.2 mM; relative to LNT.

Data set [5] has as its target asialo-α1-acid glycoprotein (Galβ1,4GlcNAc-R). This is another data set of the same source.
The target in data set [6] is [14C]NeuAc labeled α1-acid glycoprotein produced from the asialo-derivative using ST6N enzyme.
Data set [7] addresses [14C]NeuAc labeled α1-acid glycoprotein produced from the asialo-derivative using ST3 enzyme.
The target of data set [8] is [14C]NeuAc labeled α1-acid glycoprotein produced from the asialo-derivative using ST3N enzyme.
The subject of data set [9] is sialidase from Newcastle disease virus. The data set is classed as biochemical. As to conditions: product formed by the named enzyme, hydrolyzed with Newcastle disease virus sialidase.
Data set [10] deals with acceptor substrate antifreeze glycoprotein (AFGP). Description: Sialyltransferase activity of purified porcine liver α2,3-0 sialyltransferase. Particulars: after third CDP-hexanolamine agarose column. The format is biochemical. From the text: FIG. 4 Purification of the α2,3-0 sialyltransferase on CDP-hexanolamine agarose (column III, CDP elution). […] In columns A and B elution of enzyme activity correlated predominantly with 48 kDa and a 45 kDa protein species, respectively (see inset, SDS-PAGE). These two species, form A and form B of the α2,3 sialyltransferase, had specific activities of 8-10 units/mg protein. The 48 kDA and 45 kDA species were blotted to a PVDF membrane and analyzed by NH2 -terminal sequencing.
The enzyme was purified from a porcine liver Triton X-100 extract by affinity chromatography on three successive columns of CDP-hexanolamineagarose. The elution profile from the first and third purification steps are shown in FIG. 3 and FIG. 4, respectively. […] These two peaks were separated by combining the indicated fractions into pools A and B, these two pools were subsequently found to be enriched in two different molecular weight forms of the α2,3-0 sialyltransferase.
The membranes were extracted three times with buffer (Conradt, H. S. et al., in Sialic Acids 1988 Proceedings of the Japanese-German Symposium on Sialic Acids (Schauer and Yamakawa, eds.) pp. 104-105, Verlag Wissenschaft and Bildung, Kiel [1988]) and the extract was passed over a 1.5 l CDP-hexanolamine agarose column (column 1) (16 umol/ml). After washing the column with 3 L buffer B, the column was eluted with a linear gradient of 0.05 to 1.0 M KCL (2.5 l×2.5 l) in buffer B. Fractions containing α2,3 sialyltransferase were combined into two pools A and B, representing the main part and the trailing end of the peak, respectively (see FIG. 3). The pools were dialysed against buffer B and subjected to another round of affinity chromatography on CDP-hexanolamine agarose (columns IIA and IIB). A 150 ml column was used for pool A and a 30 ml column was used for pool B; two preparations from column I (from total of 4 kg liver) were loaded on the same column in step II. […]

Data set [11] shares this test system. As to conditions: Rearick et al. 1979; cited from earlier work.

In the case of “signal peptide-ST (sp-ST), soluble form of porcine Galβ1,3GalNAc α2,3 sialyltransferase (pSVL-spST) (enzyme)”, the Relative rate (%) of sialic acid transfer, acceptor 0.2 mM came to 5% in [1], 0% in data set [2], 57% in [3] and 26% in data set [4].

Turning to `CC(=O)N[C@H]1C(O)O[C@H](CO)[C@@H](O[C@@H]2O[C@H](CO)[C@H](O)[C@H](O)[C@H]2O)[C@@H]1O` (some centres unmarked) [Galβ1,4GlcNAc], at human ST3N, the “Relative activity (%) Human” value is 22%. In addition, the “Relative rate (%) ST30” value at ST3O was 0%. Moreover, the “Relative rate (%) ST3N” value at ST3N (acceptor 0.2 mM) is listed as 19%; at ST3N (acceptor 2.0 mM) it was 46%. The “Relative activity (%) Rat” value at rat ST3N was 19%.

Regarding `CC(=O)N[C@H]1C(O)O[C@H](CO)[C@@H](O)[C@@H]1O[C@@H]1O[C@H](CO)[C@H](O)[C@H](O)[C@H]1O` (some centres unmarked) [Galβ1,3GlcNAc], the “Relative activity (%) Human” value on human ST3N came out at 48%. The “Relative rate (%) ST30” value at ST3O is given as 2%. Further, the “Relative rate (%) ST3N” value at ST3N (acceptor 0.2 mM) is listed as 49%. Moreover, on rat ST3N, the “Relative activity (%) Rat” value was 49%.

The molecule “soluble protein A/human ST3N fusion (expression plasmid A3NHP), human Galβ1,3(4)GlcNAc α2,3-sialyltransferase (from UniProt P02976) (enzyme)” returned a Relative activity (%), acceptor 0.2 mM in data set [5] of 14%.

As for “sialidase from Newcastle disease virus (Oxford Glycosystems) (enzyme)”, the release of [14C]NeuAc from labeled glycoprotein (% of total 14C NeuAc released) stood at 0 in data set [6], 83 in [7] and 82 in data set [8].

For the molecule “soluble protein A/ST3 fusion (expression plasmid AZ3), human ST3 sialyltransferase (from UniProt P02976) (enzyme)”, the Relative rate (%) of sialic acid transfer, acceptor 0.2 mM in [1] stood at 3.8%; in data set [2], 51%; in data set [3], 50%; in data set [4] it was 92%.

B1: rat Galβ1,4GlcNAc α2,6-sialyltransferase (protein)
chain: SKQDPKEDIPILSYHRVTAKVKPQPSFQVWDKDSTYSKLNPRLLKIWRNYLNMNKYKVSYKGPGPGVKFSVEALRCHLRDHVNVSMIEATDFPFNTTEWEGYLPKENFRTKVGPWQRCAVVSSAGSLKNSQLGREIDNHDAVLRFNGAPTDNFQQDVGSKTTIRLMNSQLVTTEKRFLKDSLYTEGILIVWDPSVYHADIPKWYQKPDYNFFETYKSYRRLDPSQPFYILKPQMPWELWDIIQEISADLIQPNPPSSGMLGIIIMMTLCDQVDIYEFLPSKRKTDVCYYHQKFFDSACTMGAYHPLLFEKNMVKHLNEGTDEDIYLFGKATLSGFRNIRC
Consider B1, for which the “total [14C]NeuAc released from labeled α1-acid glycoprotein product” value (“total [14C]NeuAc released” for short) in data set [9] amounted to 0%.

B2: ST3: human sialyltransferase of SEQ. ID. NO:12; β-galactoside α2,3-sialyltransferase (protein)
chain: MCPAGWKLLAMLALVLVVMVWYSISREDRYIEPFYFPIPEKKEPCLQGEAESKASKLFGNYSRDQPIFLRLEDYFWVKTPSAYELPYGTKGSEDLLLRVLAITSSSIPKNIQSLRCRRCVVVGNGHRLRNSSLGDAINKYDVVIRLNNAPVAGYEGDVGSKTTMRLFYPESAHFDPKVENNPDTLLVLVAFKAMDFHWIETILSDKKRVRKGFWKQPPLIWDVNPKQIRILNPFFMEIAADKLLSLPMQQPRKIKQKPTTGLLAITLALHLCDLVHIAGFGYPDAYNKKQTIHYYEQITLKSMAGSGHNVSQEALAIKRMLEMGAIKNLTSF
Regarding B2, the “total [14C]NeuAc released” value in data set [9] stood at 83%.

B3: rat Galβ1,3(4)GlcNAc α2,3 sialyltransferase (protein)
chain: KLHLLQWEDSNSLILSLDSAGQTLGTEYDRLGFLLKLDSKLPAELATKYANFSEGACKPGYASAMMTAIFPRFSKPAPMFLDDSFRKWARIREFVPPFGIKGQDNLIKAILSVTKEYRLTPALDSLHCRRCIIVGNGGVLANKSLGSRIDDYDIVIRLNSAPVKGFEKDVGSKTTLRITYPEGAMQRPEQYERDSLFVLAGFKWQDFKWLKYIVYKERVSASDGFSKSVATRVPKEPPEIRILNPYFIQEAAFTLIRLPFNNGLMGRGNIPTLGSVAVTMALDGCDEVAVAGFGYDMNTPNAPLHYYETVRMAAIKESWTHNIQREKEFLRKLVKARVITDLSSGI
Turning to B3, in data set [9], the “total [14C]NeuAc released” value stood at 82%.

B4: Form B: 45 kDa molecular weight form of the porcine liver α2,3 sialyltransferase (protein)
chain: NYSHTVVTTAWFPKQMVIELSENFKKLMKYPYRPCTCTRCIEEQRVSAWFDERFNRSMQPLLTAKNAHLEEDTYKWWLRLQREKQPNNLNDTIRELFQVVPGNVDPLLEKRLVSCRRCAVVGNSGNLKESYYGPQIDSHDFVLRMNKAPTEGFEADVGSKTTHHFVYPESFRELAQEVSMILVPFKTTDLEWVISATTTGTISHTYVPVPAKIKVKKEKILIYHPAFIKYVFDRWLQGHGRYPSTGILSVIFSLHICDEVDLYGFGADSKGNWHHYWENNPSAGAFRKTGVHDGDFESNVTTILASINKIRIFKGR
Regarding B4, the specific activity in data set [10] was 8-10 units/mg protein. For the same molecule, the “catalytic activity (in words)” value in data set [11] is given as “fully catalytically active”.

The values are drawn from patent publication US5962294A, “Compositions and methods for the identification and synthesis of sialyltransferases” (The Regents of the University of California, priority 1993, dated 1999).
